Patent US20140096274A1 (published 2014)

Legend:
human RANK-Fc = target: T1, human RANK-Fc (human, UniProt Q9Y6Q6 30-212); experiment: SPR single cycle kinetics, hRANK-Fc captured at 20-40 RU, 1:1 fit
T1 construct: also called hRANK-Fc; hRANK-FC; not shown: Fc part of the bought fusion; not described
T1 sequence (looked up): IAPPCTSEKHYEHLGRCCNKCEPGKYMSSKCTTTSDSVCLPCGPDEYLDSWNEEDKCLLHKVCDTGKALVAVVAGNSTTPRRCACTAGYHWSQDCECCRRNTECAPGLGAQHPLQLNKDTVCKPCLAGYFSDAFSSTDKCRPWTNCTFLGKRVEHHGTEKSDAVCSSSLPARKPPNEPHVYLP
Procedure: (§1) Considering the high similarity between human RANKL and murine RANKL (>88%) the murine dimers were also tested for hRANK binding. Binding to hRANK-Fc and mRANK-Fc (both from R&D Systems) was recorded for five consecutive concentrations of murine flag RANKL WT, D1 (mD1) or D2 (mD2) (˜0.3-15 nM) using SPR with a single cycle kinetics based approach. The capture level of mRANK-Fc and hRANK-Fc was low (20-40 RU) in order to ensure 1:1 binding. Both WT and the D1 and D2 dimeric variants bound with high affinity towards the mRANK receptor and to the human RANK receptor (FIG. 16: Table 8).

murine RANK-Fc [1] = target: T2, murine RANK-Fc (mouse, UniProt O35305 31-214); experiment: SPR single cycle kinetics, mRANK-Fc captured at 20-40 RU, 1:1 fit
T2 construct: also called mRANK-Fc; mRANK-FC; not shown: Fc part of the bought fusion; not described
T2 sequence (looked up): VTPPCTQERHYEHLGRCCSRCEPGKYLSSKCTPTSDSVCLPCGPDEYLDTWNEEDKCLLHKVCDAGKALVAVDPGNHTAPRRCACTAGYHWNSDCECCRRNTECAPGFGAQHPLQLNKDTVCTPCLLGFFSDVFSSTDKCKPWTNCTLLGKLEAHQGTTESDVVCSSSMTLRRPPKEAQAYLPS
Procedure: as §1

murine RANK-Fc [2] = target: T2, murine RANK-Fc; experiment: ELISA dose response on RANK-Fc coated wells, global four parameter logistic fit
Procedure: The ability of dimer 1 and dimer 2 to compete with wild-type murine RANKL for binding to mRANK was investigated using a competitive ELISA. […] After washing off unbound RANKL, mRANK bound flag-mRANKL was detected by an anti-flag antibody. A RANKL dimer concentration dependant decrease in mRANK binding and right shift in the EC₅₀ of flag-mRANKL was observed (FIGS. 7 and 18B), indicating a competitive inhibition based mechanism. IC₅₀ values for dimer 1 and dimer 2 were calculated to be 4 nM by a global fit of the individual dose response curves using a four parameter logistic model.
As the concentration of flagRANKL WT used in the competitive ELISA was above its KD for mRANK-Fc, for mD2 also an EC₅₀ shift experiment was performed. A dose-response curve of 0-50 nM flagRANKL WT binding to RANK-Fc was recorded in the presence and absence of various fixed concentrations of D2 (3, 5, 11, 22 or 43 nM) (FIG. 18B and FIG. 7). […] Upon a global fit of the individual dose response curves using a four parameter logistic model, an EC₅₀ for flag-mRANKL WT of 0.6 nM (±0.04 nM) was obtained and for mD2 an A₂ value of 4 nM (±0.5 nM) was calculated, i.e. the concentration of inhibitor required to shift the dose response curve by a factor of 2.

murine RANK-Fc [3] = target: T2, murine RANK-Fc; experiment: SPR, mRANK-Fc captured at low density on C1 chip, 1:1 Langmuir fit, mean of three experiments
Procedure: SPR measurements were performed using ˜1500-2000 RU of captured mRANK-Fc on the surface of a CM5 sensor chip (FIGS. 15B and C). This is a density that results in a mean ratio of RANKL:RANK of approx 1:3 (52). […] (Table 5, below) In contrast, the ratio of binding of RANKL variants mD1 and mD2 to mRANK-Fc seems hardly to be affected by receptor density (Table 5). The values obtained after injecting 500 nM of the dimeric variants correlate to binding of 1.5 monomeric subunits by mD1 and 1.6 monomeric subunits by mD2.
Kinetic binding parameters were also measured for mD1 and mD2 binding to mRANK-FC in real time using SPR using murine RANKL-WT as a control (FIG. 15; table 8). RANKL dimer binding curves to mRANK-Fc captured at low density on the surface of a C1 sensorchip were recorded using concentrations ranging from 100 pM to 562 nM. At very low receptor density, RANKL proteins bind only one receptor molecule, allowing the data to be fitted to a Langmuir 1:1 interaction model (29). RANKL WT needed a very low density (<20 resonance units (RU)) to come close to a 1:1 ratio (FIG. 3A). […] Maximum binding of 5.5 RU is reached, which is slightly lower than the expected Rₘₐₓ value of 6.8 RU for a 1:1 ratio, but definitely larger than 3.4 RU, the Rₘₐₓ value expected for a binding ratio of 2 molecules of RANK per flag-mRANKL WT trimer. Similar to mRANKL WT, binding of RANKL mD1 or mD2 to mRANK-Fc results in slightly lower Rₘₐₓ values than expected for a 1:1 binding ratio: 24 RU D1 compared to 26 RU, and 20 RU D2 compared to 23 RU (FIG. 15A). These binding ratio's could be reached with mD1 and mD2 at densities of mRANK-Fc of <50 RU. The approximate 1:1 binding of RANKL proteins to mRANK-Fc allows fitting the data to the 1:1 Langmuir binding model.

Kd (human RANK-Fc): 0.104 nM | koff (human RANK-Fc): 0.000575 s⁻¹ | kon (human RANK-Fc): 5.63e+06 M⁻¹ s⁻¹ | Kd (murine RANK-Fc [1]): 0.0315 nM | koff (murine RANK-Fc [1]): 0.000189 s⁻¹ | kon (murine RANK-Fc [1]): 6.14e+06 M⁻¹ s⁻¹ | EC50 (murine RANK-Fc [2]): 0.6 nM | Ka (murine RANK-Fc [3]): 4.4e+10 M⁻¹ | Kd (murine RANK-Fc [3]): 0.065 nM | koff (murine RANK-Fc [3]): 0.00034 s⁻¹ | kon (murine RANK-Fc [3]): 5.9e+06 M⁻¹ s⁻¹
B1: murine flagRANKL WT (wild-type mRANKL containing an N-terminal flagtag) (ligand, mouse, UniProt O35235 160-316, looked up)
chain: EAQPFAHLTINAASIPSGSHKVTLSSWYHDRGWAKISNMTLSNGKLRVNQDGFYYLYANICFRHHETSGSVPTDYLQLMVYVVKTSIKIPSSHNLMKGGSTKNWSGNSEFHFYSINVGGFFKLRAGEEISIQVSNPSLLDPDQDATYFGAFKVQDID
notes: Trimeric; also called flag-mRANKL WT; mWT; not shown: N-terminal flagtag
